Laboratory results reported in patent US20240026407A1, “MODIFICATION OF SAPONINS” (GLAXOSMITHKLINE BIOLOGICALS SA, priority 2020, published 2024).

B1: 1016 (protein, listed as Olsenella profusa)
chain: MRATNLTVACLTNPLGIDVRCPELAWIDEDGLSQSAYQVECKDGAGATLWDTGKVASASMRIAWPGAALASRERVTWRVRLWDDGDACGPWSEFASIEEGLLSADDWCARWISGNYDVPTPRAGALGNFRQMVAAMRPASPDQVVTEPILEGRYPVDCFCRAFVVGKAPVRARLYITACGLYEARIDGEKVGDLCMAPGHTDYRKRVQYQTYDVTAALATGAHELTVQLADGWYRGSCGAWGLLNQYGTQTKLLAQLEVTYADGHVDCVATDTDWQWSGDGPILFADNKDGEMVDATRAPSYAGHARDARHDVAPTASNNVPITMHERFSPAPALAPNGRLLFDLGQNIAGWVELDFDAHESQHVLLRCGEMLDADGNLTLKNIQCSREGFATPLQQVEYVCREGHNHYRTTFCVFGFRYVEVETNVQLGEGSLTAIALYSDMRQTGSFECSNELLNRFFESTVWSTKGNSLDVPTDCPTRERHGWSGDAQIFFETLSYLFDCRSFERKWLHDLFDWQKRDGRLPQVAPAGGVDSYMRFLDGSVGWADAGILIPYRYWRHYGDASVLAELYDGMRRYAEFMIRRCGRRGPFSKRVGIHGEAKKYLVNMGQCYGEWAEPADVHKMDWKDTVAPHPEVATAYTDYVLGCMAQIARELGHEEDEARYRQYSEGCRLAYQELSRLPEFSLDTDRQARLVRPLAFGLLDPQQTAYARKRLVKACESYGWRLGTGFLSTPLILDVLAKYDLDAAYRLLENEEMPGWLFMPKMGATTVWESWEGTQAQGGIASLNHYSKGAVCAWLFRVMCGIAPDGERHVTVAPRPGGRFAYAKAGYESPCGFVGCGWQRVEDGWRFAVEVPANCAATVVLPDGSTREVGAGVHEFECVARAAREG
B2: 1037 (protein, listed as Pedobacter heparinus)
chain: MNLKRHILLTAILMLNLSIAFSQVTLQNLRCEMLQNPLGIDVARPRLSWQIASTRNDVQQTAYHILVASSLAKLTENDADIWNSGKVNSAESLYNLYAGQTLKSKNKYYWKVKVYTSKGESSWSQPAFWLMGLLHYKDWEGRWIGFDRFFTGDNEAGARLSARYFRKEFSTTKTVASATAYLMGMGLYELYIDGQKIGDQVLAPTATDYTKNIKYNTLDVTEQLRQGGNHAIGVILGNGRFFAMRQSKAYKVKTFGLPKLLLQVNIKYTDGSTATIKTDDTWKGTADGPILANNEYDGEIYDARKEFKGWSEPGFKEDKWLRAEYVQEPGGTYEAQLNEGMKVMKTLSPVSITRRPNGNYILDFGQNFSGWVKFNVKGPRGTSVSLRFAESLEPNGELFRTNLRDARATDIYTLKGEGTETWAPRFTYQGFRYVELNGYPGVPQKSDFSGCLVYDDMKTAGTFESSNSLLNQIFKNAWWGIASNYKGMPVDCPQRNERQPWLGDRTVGAYGESFLFDNTALYKKWLDDIRYAQKEDGAIPDVAPAFWRYYSDNVTWPATLLFVADMLYRQTGDSTVIRKNYPAVKKWMSYMKDRYMSSEGIMTKDSYGDWCAPPATAEDGKGVNADQKHPSALIATAYYYHLANMMAGYSALTGNAGDREGYTRLAAEVKNAFNRKFYNSQGYYGDNKLTDNLLPVYFGLVEEADKGRVVMQICSIIEEKNNGHLSTGLIGTQFLMRTLTEAGRPDLAYRIASQKTYPSWGYMIENGATAIWELWNGNTAAPKMNSQNHVMMLGDLMIWYYENLAGIKAAAPGFKEITMKPELIEGLNNVTAGYQSVYGLIKSSWTKTGKKFSWNISIPPNTRAKAYLPASMQSQVKKGATADGAKYIMAENGRVVFELKSGEYAFVVEQ
B3: 1002 (protein, listed as Flavobacterium johnsoniae)
chain: MKNFKNILLGLSFLITFISNGQILPVRLTTEMAENPLAVIENQPKFSWQLISKESDVSQVAYLILVASSEEKLNNDDGDIWNSGRVNTDKNLHIVYSGKPLKSETKYFWKVKVWNQLGKISKWSKTASFRTASLESDLNPIWIGAITKADSHLPEGRNYHTATFNREKKMSFINASDSLARRSIMLRKPFEVEKAVKEAVVYISGLGHYELTINGKKVGNSQFAPLWTDYDKTVNYNVYELSAKEFQKGDNVIGVLLGNGMYNTLAERYTKFFVSFGPPTLFFKMKIKYNDGSEEIIKSDRTWKYSKSPITYNSIFGGEDYNANLEQKDWNRKGFKDRDWKKVVIQEAPKGILRPQTAPPVTIQKQYEVKTVKELKPNFYVFDMGQNLSGFPTIKVKGKRGQTIRVWVAEGLNEEGTIAQGRSGKPYYYDYTLKGKDVEEWTPKFSFYGYQYVQIENINYKEDKNKEFPTLVDLKSNFIYNSAGEAGSFACSNEIFNKTHELINNSIKSNFQSVFTDCPQREKLGWLEEIQLNGPSLMFNYNLQTFLPATMQNISDSQRENGLIPTIVPEYVIFGGDFTDSPEWGVTGVILPWMYYEYYGDASLLEKYFPVMKNYVDYLGTKATNHIVSHGLGDWYDYGTHPAGYSKNSPIALSATSHYYYGAFLVAKASKLLGKTEDFEKYNTLASEIKTAFNAAFFNEETKQYGTSSQFSNAVPIFMDIVEPQYKEAVMQNLLADIKEKGDRLTTGDVGNRYLFQTLARNGENETMYRMHNHYDAPGYGFQIKFGLTTLTEQWDPRKGNSWNHFMLGQIEEWFYQSLAGIMSDPEKPGFKHFFIQPEVVGDMTFAKADYQSVYGKIASSWEKKDGKFILTVQIPVNTTATIKLPVAKNSEIKMDGKRVRAGFDEKAQKPVLELGSGIYTIECTI
B4: 1062 (protein, listed as Streptosporangium roseum)
chain: MIGNAVHCAPAQTSPSRSDPAPPRLTPYGLRCEHRQTPLGVGEPRPLLSWRLASARAGDDPVAYELEVGDWSSGRVEDPAAIGAVYGGPPLLPRTRYAWRVTVWARDGAEGSAESWFETGQDVWQASWIAHDPAAVAHMDPPTEGDQALSHHGLLPCPQLRTSFESTAGVTRARLLISAKGLYEARVNGHRAGDAELAPGWTDYRRRIQYQVHDVTPFLLDGENVLAATVADGWWSGFTGFDPRRPGYHYGRFPELIAELHLTFEDGSTRVVATGEGWRTGHGRVRYGDLLKGECHDARAETPGWDLPGFDDSSWRPAVVTGDDHSLLVASRDEPVRALGELLPVSSVLVRPGVHLVDFGQNIAGRVRLAVRDQEPGRRVTVRHGETLDGEDRLHTANLRTADATDVLITAGGAEEVFEPRFTYHGFRYAEVSGIDRLDDIRAIVLHSDTPWTGTFECSDPEINRLHDNIGWGQRGNFVSVPTDCPQRDERLGWLADAQVFLPTACFNADVSGFFSKWMRDVVDAQSPEGGFSNVAPLLSGVADEGAPGWADAGVLVPWHLYRVYGDDRFLDVDSMVRWVDFVARHNPDLIWRHRTGPHFADWLAPGPATPREVLATAFFHRSAALTAEAARVRGLYGEAERMGALADRVRAAFAAAFVGDGGLVEGDTQTGYLLALAFGLLTPEQGRGAAARLAALVEESGPLTGFLGVNLLCPVLSAHGRDDLAHALLRRTDPPSWLYQVRHGATTVWERWDGVGAASMNSFNHYAFGSIGEWLYSGVAGIAQAPGSVAFREVVIRPLPGDLSRAGASYESARGLISVSWHNDAEGFRLQTRIPPGATATVHLPGGETRRVTSGDHIFELVRGEKA
B5: 1029 (protein, listed as Rhodococcus jostii)
chain: MTTPTHLRLEHLRPGEPCGTTHPRLSWRLPTGSTGQQAYQVRVAGAFDRTSSTLFTTEIIEGRDHVLVRPWTATHPAPTAGEARTWQVRCWTDLGPSDWSEPATWVTGLLHGGDLTADWIEPYEPDVPPLGHRPVYRLRASWRPRAEIAHASLFATAHGIYEFFVNDVRVGDHELTPGFTSYRAHLQVQHFDVTDLLHPEHNDLGILLSDGWFRGRHGFERHGDSFGDRVAALAELHVRYADGTSERFGTGDGWTSTPSEIDAADLMDGQRVDLRRVPAGEVRHPAVVARGGLYDDRSRLTTGVAPPVRRIETLAAVAVTEPRPGTYVVDFGQNVNGWVTAADLGPAGTHATLTHGESLAADGSVDTDHLRAFEFATGTGLPAGQVDHVVSSGRAGEAFESRHTTHGFRYVQFDGLATKPGPGSVTAAVVHTDLEQVGSFGCDNDRLAKLHAAAVWSFRGNACDVPTDCPQRERSGFTGDWQVYVETAAFTHDVAGFSDKWLRDLAADQWPDGTVPNIVPNPAGNQPSGNHFADIANGSAGWGDAAVIVPWQLWRLYGDVEVLERQYDSMTRWVERAAGAARDRRHPDRARARPTPDAHEEYLWDTGFHWGEWLEPDEIPAPDPARDHSVVATAYLARSAELLAQIAGVLGRDRDECRYAAIAAGAVRAWQREFITPEGTLTHPTQANYVRALEFDLVPAEGRRRFADELAQLLVDNDYHLGTGFLATGMLLPALARNGHLDTAYRVLLSTGNPSWMEMIDRGATTIWERWDGVDENGRATASLNHYAKGAVISFLHQFVAGLRPAETTGPHTVGYRRFVVDPRPGGDINTAHAEHCSPYGNIAVRWTIADDVFTLSLTVPSGSECELRLGDTTELLRSGTYTRTCPAARVTQRSSRASPTR
B6: 1023 (protein)
chain: MNLFLSIFLFCSPLFLLGQSELNYPELLYPPQAIKANWVSHPDIQGGEDRIVLFRNEWMVDDPSEAFIINISADNHYFLYVNGNLVTHGPQLSDIRHWKYETIDLKTYLKTGKNLIAIKVVNYGKRRFYGMQSIFTSLMVNGATENAKVLNTSGTDDGWKCSIDDSYRALEVNWRGGGPKSIVGGFYANNPTDFVDKNHYPTDWEQPDFDDSDWVDTQFFEGASSMGGSMAYLLEPRNLPLLTWEKEGIGHTVRTSDIDVSEFPVSGKTVVPEHKKIRFLIDQKYVTNGFPELIFSKGKNAHIKIKYAENLFGPKNTKGDRNIIKGKELLGYYDHVVSNGKERQKFTPNWMRTFRFVEFEIETKGQELVLDSFSNYRSRTHIPSIARFSSNNETYNAIFDICKRTVDICTQDYFLSDAYYETMQYVGDTKIHALLWQAMSGNLAHTKNAIEQFHRSRDADGNILGAYPLRSTFIYPTYSLVWVDMVYDYYQLTNDTDFINTYKDGIIHTLAGFEKNMNELNLVNETQYRYFVDWYTGPNNGGGTATKNNGKNSAVVSLHYVHALQNAARLFKAIGDKHTADTYLDRATAIKSSVYKLCFDPNKNIFAERPDKTVYDQHTNIMAVLTDAIAESEQKALLSNILNDPKLLQATYYYRYYLFEAIKKVGAPELFDLAQRPWQAMIDNHMTTTLERFESDKKPTRSEVHPWSASPAYFYFNYLAGIKSVKNDFQEIEIAPVFGILEDMEGLLPTSKGNILFHLKKIRSKLSAEIIVPKEMSGELVWNEKHIPLKHGQHTYILK
modifications: Zobellia galactanivorans

Assay: Experiment 6-1: specificity of rhamnosidases towards other rhamnose residues (C3 saccharide rhamnose, C28 saccharide rhamnose)
Assay type: biochemical, Quillaja saponaria
Details: TBE 2%, pH 7.5, 30 degC, 18 h; LCMS/MS; negative controls 0.18, 0.17

Molecule | ratio PP/QS-21
B1 | 0.18
B2 | 0.17
B3 | 0.16
B4 | 0.18
B5 | 0.16
B6 | 0.17

Assay: Experiment 6-1: screening of rhamnosidases for derhamnosylation of saponins in treated bark extract (2%), QS-17 2296 to QS-18 2150 (PAR %)
Assay type: biochemical, Quillaja saponaria
Details: TBE 2%, pH 7.5, 30 degC, 18 h; TIC peak area ratio percent of rhamnosylated starting saponin to derhamnosylated product, LCMS/MS; negative controls 4.876, 5.225

Molecule | QS-17 (PAR %) [%]
B1 | 4.872
B2 | 4.972
B3 | 4.922
B4 | 4.916
B5 | 4.926
B6 | 4.916

Assay: Experiment 6-1: screening of rhamnosidases for derhamnosylation of saponins in treated bark extract (2%), desglucosyl-QS-17 2134 to QS-21 1988 (PAR %)
Assay type: biochemical, Quillaja saponaria
Details: TBE 2%, pH 7.5, 30 degC, 18 h; TIC peak area ratio percent, LCMS/MS; negative controls 2.719, 2.158

Molecule | Peak75 (PAR %) [%]
B1 | 2.498
B2 | 2.424
B3 | 2.538
B4 | 2.410
B5 | 2.069
B6 | 2.120

Assay: Experiment 6-1: screening of rhamnosidases for derhamnosylation of saponins in treated bark extract (2%), QS-17 2310 to QS-18 2164 (PAR %)
Assay type: biochemical, Quillaja saponaria
Details: TBE 2%, pH 7.5, 30 degC, 18 h; TIC peak area ratio percent, LCMS/MS; negative controls 3.061, 2.429

Molecule | Peak57 (PAR %) [%]
B1 | 3.326
B2 | 2.764
B3 | 2.843
B4 | 2.941
B5 | 3.334
B6 | 2.889
